T1: PUF4 RNA-binding domain (Saccharomyces cerevisiae, UniProt P25339 537-888)
T1 sequence: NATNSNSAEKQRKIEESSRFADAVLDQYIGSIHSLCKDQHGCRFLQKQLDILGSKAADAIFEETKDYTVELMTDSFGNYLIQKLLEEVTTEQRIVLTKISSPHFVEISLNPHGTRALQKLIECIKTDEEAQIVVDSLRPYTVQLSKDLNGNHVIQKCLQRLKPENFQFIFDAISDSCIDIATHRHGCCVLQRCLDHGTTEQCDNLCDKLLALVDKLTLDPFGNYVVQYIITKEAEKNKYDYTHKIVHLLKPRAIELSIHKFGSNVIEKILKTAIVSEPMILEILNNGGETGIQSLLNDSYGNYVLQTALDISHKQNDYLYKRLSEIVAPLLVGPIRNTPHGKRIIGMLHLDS

B1: Ia_S4_P5E.1_K5.1_C5.1_H5.1_A5.1_F5.1_[T9A]_T5.1 (ssRNA)
RNA: UUUGACAACUGAUCGUUCUUUCUUGUAUUAUAAUUCUUUCUCGAUCAGUUGUCUUU
B2: Ic_S4_P5E.1_K5.1_C5.1_H5.1_A5.1_F5.1_[A10G]_T5.1 (ssRNA)
RNA: UUUGACAACUGAUCGUUCUUUCUUGUAUUAUUGUUCUUUCUCGAUCAGUUGUCUUU
B3: Ia_S4_P5E.1_K5.1_C5.1_H5.1_[A4C]_A5.1_F5.1_T5.1 (ssRNA)
RNA: UUUGACAACUGAUCGUUCUUUCUUGUCUUAUUAUUCUUUCUCGAUCAGUUGUCUUU
B4: Ia_S4_P5E.1_K5.1_C5.1_H5.1_A5.1_[T5C]_F5.1_T5.1 (ssRNA)
RNA: UUUGACAACUGAUCGUUCUUUCUUGUACUAUUAUUCUUUCUCGAUCAGUUGUCUUU
B5: Ia_S4_P5E.1_K5.1_C5.1_H5.1_[T1A]_A5.1_F5.1_T5.1 (ssRNA)
RNA: UUUGACAACUGAUCGUUCUUUCUAGUAUUAUUAUUCUUUCUCGAUCAGUUGUCUUU

Biological target: T1, PUF4 RNA-binding domain
Assay: Mg; RNA-MaP; 20 mM Na-HEPES pH 7.4, 30 mM KOAc, 0.75 mM MgCl2, 0.1% Tween-20, 5% glycerol, 0.1 mg/mL BSA, 2 mM DTT; 25 C; 0.0125-409.6 nM protein
Details: tags: N-His6-TEV cleaved; C-SNAP kept, Cy3B-labelled; label: tethered on chip by stalled RNA polymerase

Binder	Kd [nM]
UCUCUUUGUACAAUUCUCUU (ssRNA) [Ic_S1_P3E.1_K3.1_C3.1_H3.1_A3.1_[T5C]_F3.1_[T7A]_[A8T]_T3.1]	11.1
UCUCUUUGUAACGGUCUCUU (ssRNA) [Ic_S1_P3E.1_K3.1_C3.1_H3.1_A3.1_[T5A]_[A6C]_F3.1_[T7G]_[A8G]_T3.1]	> 2300
UCUCUUUGUACGUUUCUCUU (ssRNA) [Ic_S1_P3E.1_K3.1_C3.1_H3.1_A3.1_[T5C]_[A6G]_F3.1_[A8T]_T3.1]	40.7
UCUCUUUGUACCGUUCUCUU (ssRNA) [Ic_S1_P3E.1_K3.1_C3.1_H3.1_A3.1_[T5C]_[A6C]_F3.1_[T7G]_[A8T]_T3.1]	391
UCUCUUUGUACAGCUCUCUU (ssRNA) [Ic_S1_P3E.1_K3.1_C3.1_H3.1_A3.1_[T5C]_F3.1_[T7G]_[A8C]_T3.1]	76.7
UCUCUUUGUAAGUGUCUCUU (ssRNA) [Ic_S1_P3E.1_K3.1_C3.1_H3.1_A3.1_[T5A]_[A6G]_F3.1_[A8G]_T3.1]	1820
UCUCUUUGUACUUUUCUCUU (ssRNA) [Ic_S1_P3E.1_K3.1_C3.1_H3.1_A3.1_[T5C]_[A6T]_F3.1_[A8T]_T3.1]	19.5
UCUCUUUGUAACACUCUCUU (ssRNA) [Ic_S1_P3E.1_K3.1_C3.1_H3.1_A3.1_[T5A]_[A6C]_F3.1_[T7A]_[A8C]_T3.1]	531
UCUCUUUGUACUAUUCUCUU (ssRNA) [Ic_S1_P3E.1_K3.1_C3.1_H3.1_A3.1_[T5C]_[A6T]_F3.1_[T7A]_[A8T]_T3.1]	9.51
UCUCUUUGUACGGCUCUCUU (ssRNA) [Ic_S1_P3E.1_K3.1_C3.1_H3.1_A3.1_[T5C]_[A6G]_F3.1_[T7G]_[A8C]_T3.1]	1730
UCUCUUUGUACACCUCUCUU (ssRNA) [Ic_S1_P3E.1_K3.1_C3.1_H3.1_A3.1_[T5C]_F3.1_[T7C]_[A8C]_T3.1]	41.8
UCUCUUUGUAACGCUCUCUU (ssRNA) [Ic_S1_P3E.1_K3.1_C3.1_H3.1_A3.1_[T5A]_[A6C]_F3.1_[T7G]_[A8C]_T3.1]	996
UCUCUUUGUAACAGUCUCUU (ssRNA) [Ic_S1_P3E.1_K3.1_C3.1_H3.1_A3.1_[T5A]_[A6C]_F3.1_[T7A]_[A8G]_T3.1]	491
UCUCUUUGUACUAGUCUCUU (ssRNA) [Ic_S1_P3E.1_K3.1_C3.1_H3.1_A3.1_[T5C]_[A6T]_F3.1_[T7A]_[A8G]_T3.1]	524
UCUCUUUGUACUUCUCUCUU (ssRNA) [Ic_S1_P3E.1_K3.1_C3.1_H3.1_A3.1_[T5C]_[A6T]_F3.1_[A8C]_T3.1]	190
UCUCUUUGUACUCUUCUCUU (ssRNA) [Ic_S1_P3E.1_K3.1_C3.1_H3.1_A3.1_[T5C]_[A6T]_F3.1_[T7C]_[A8T]_T3.1]	44.3
UCUCUUUGUAAGCUUCUCUU (ssRNA) [Ic_S1_P3E.1_K3.1_C3.1_H3.1_A3.1_[T5A]_[A6G]_F3.1_[T7C]_[A8T]_T3.1]	653
UCUCUUUGUACUGCUCUCUU (ssRNA) [Ic_S1_P3E.1_K3.1_C3.1_H3.1_A3.1_[T5C]_[A6T]_F3.1_[T7G]_[A8C]_T3.1]	842
UCUCUUUGUACGCCUCUCUU (ssRNA) [Ic_S1_P3E.1_K3.1_C3.1_H3.1_A3.1_[T5C]_[A6G]_F3.1_[T7C]_[A8C]_T3.1]	719
UCUCUUUGUACUAAUCUCUU (ssRNA) [Ic_S1_P3E.1_K3.1_C3.1_H3.1_A3.1_[T5C]_[A6T]_F3.1_[T7A]_T3.1]	77.4

Binder	Kd [nM]
UCUCUUUGUACCUUUCUCUU (ssRNA) [Ic_S1_P3E.1_K3.1_C3.1_H3.1_A3.1_[T5C]_[A6C]_F3.1_[A8T]_T3.1]	34
UCUCUUUGUACUCAUCUCUU (ssRNA) [Ic_S1_P3E.1_K3.1_C3.1_H3.1_A3.1_[T5C]_[A6T]_F3.1_[T7C]_T3.1]	445
UCUCUUUGUACUACUCUCUU (ssRNA) [Ic_S1_P3E.1_K3.1_C3.1_H3.1_A3.1_[T5C]_[A6T]_F3.1_[T7A]_[A8C]_T3.1]	349
UCUCUUUGUACGAUUCUCUU (ssRNA) [Ic_S1_P3E.1_K3.1_C3.1_H3.1_A3.1_[T5C]_[A6G]_F3.1_[T7A]_[A8T]_T3.1]	29.9
UCUCUUUGUAGUUUUCUCUU (ssRNA) [Ic_S1_P3E.1_K3.1_C3.1_H3.1_A3.1_[T5G]_[A6T]_F3.1_[A8T]_T3.1]	403
UCUCUUUGUAAGUUUCUCUU (ssRNA) [Ic_S1_P3E.1_K3.1_C3.1_H3.1_A3.1_[T5A]_[A6G]_F3.1_[A8T]_T3.1]	709
UCUCUUUGUACGCAUCUCUU (ssRNA) [Ic_S1_P3E.1_K3.1_C3.1_H3.1_A3.1_[T5C]_[A6G]_F3.1_[T7C]_T3.1]	872
UCUCUUUGUACCGCUCUCUU (ssRNA) [Ic_S1_P3E.1_K3.1_C3.1_H3.1_A3.1_[T5C]_[A6C]_F3.1_[T7G]_[A8C]_T3.1]	989
UCUCUUUGUAACCUUCUCUU (ssRNA) [Ic_S1_P3E.1_K3.1_C3.1_H3.1_A3.1_[T5A]_[A6C]_F3.1_[T7C]_[A8T]_T3.1]	81
UCUCUUUGUACAAGUCUCUU (ssRNA) [Ic_S1_P3E.1_K3.1_C3.1_H3.1_A3.1_[T5C]_F3.1_[T7A]_[A8G]_T3.1]	704
UCUCUUUGUACCCCUCUCUU (ssRNA) [Ic_S1_P3E.1_K3.1_C3.1_H3.1_A3.1_[T5C]_[A6C]_F3.1_[T7C]_[A8C]_T3.1]	953
UCUCUUUGUACGGUUCUCUU (ssRNA) [Ic_S1_P3E.1_K3.1_C3.1_H3.1_A3.1_[T5C]_[A6G]_F3.1_[T7G]_[A8T]_T3.1]	385
UCUCUUUGUAACCCUCUCUU (ssRNA) [Ic_S1_P3E.1_K3.1_C3.1_H3.1_A3.1_[T5A]_[A6C]_F3.1_[T7C]_[A8C]_T3.1]	975
UCUCUUUGUACCAUUCUCUU (ssRNA) [Ic_S1_P3E.1_K3.1_C3.1_H3.1_A3.1_[T5C]_[A6C]_F3.1_[T7A]_[A8T]_T3.1]	8.04
UCUCUUUGUACCUCUCUCUU (ssRNA) [Ic_S1_P3E.1_K3.1_C3.1_H3.1_A3.1_[T5C]_[A6C]_F3.1_[A8C]_T3.1]	157
UCUCUUUGUACACGUCUCUU (ssRNA) [Ic_S1_P3E.1_K3.1_C3.1_H3.1_A3.1_[T5C]_F3.1_[T7C]_[A8G]_T3.1]	27.2
UCUCUUUGUACACUUCUCUU (ssRNA) [Ic_S1_P3E.1_K3.1_C3.1_H3.1_A3.1_[T5C]_F3.1_[T7C]_[A8T]_T3.1]	9.72
UCUCUUUGUACUCCUCUCUU (ssRNA) [Ic_S1_P3E.1_K3.1_C3.1_H3.1_A3.1_[T5C]_[A6T]_F3.1_[T7C]_[A8C]_T3.1]	384
UCUCUUUGUAACGUUCUCUU (ssRNA) [Ic_S1_P3E.1_K3.1_C3.1_H3.1_A3.1_[T5A]_[A6C]_F3.1_[T7G]_[A8T]_T3.1]	534
UCUCUUUGUACAACUCUCUU (ssRNA) [Ic_S1_P3E.1_K3.1_C3.1_H3.1_A3.1_[T5C]_F3.1_[T7A]_[A8C]_T3.1]	50.4

Binder	Kd [nM]
UCUCUUUGUACGAAUCUCUU (ssRNA) [Ic_S1_P3E.1_K3.1_C3.1_H3.1_A3.1_[T5C]_[A6G]_F3.1_[T7A]_T3.1]	891
UCUCUUUGUACUUGUCUCUU (ssRNA) [Ic_S1_P3E.1_K3.1_C3.1_H3.1_A3.1_[T5C]_[A6T]_F3.1_[A8G]_T3.1]	112
UCUCUUUGUAAGCAUCUCUU (ssRNA) [Ic_S1_P3E.1_K3.1_C3.1_H3.1_A3.1_[T5A]_[A6G]_F3.1_[T7C]_T3.1]	> 2300
B1	2.07
B2	11.8
B3	13.1
B4	2.21
B5	> 2300
UCUCUUUGUAACCAUCUCUU (ssRNA) [Ic_S1_P3E.1_K3.1_C3.1_H3.1_A3.1_[T5A]_[A6C]_F3.1_[T7C]_T3.1]	959
UCUCUUUGUACUGGUCUCUU (ssRNA) [Ic_S1_P3E.1_K3.1_C3.1_H3.1_A3.1_[T5C]_[A6T]_F3.1_[T7G]_[A8G]_T3.1]	1060
UCUCUUUGUAAGCCUCUCUU (ssRNA) [Ic_S1_P3E.1_K3.1_C3.1_H3.1_A3.1_[T5A]_[A6G]_F3.1_[T7C]_[A8C]_T3.1]	1550
UCUCUUUGUACGUGUCUCUU (ssRNA) [Ic_S1_P3E.1_K3.1_C3.1_H3.1_A3.1_[T5C]_[A6G]_F3.1_[A8G]_T3.1]	492
UCUCUUUGUACCUGUCUCUU (ssRNA) [Ic_S1_P3E.1_K3.1_C3.1_H3.1_A3.1_[T5C]_[A6C]_F3.1_[A8G]_T3.1]	115
UCUCUUUGUACCACUCUCUU (ssRNA) [Ic_S1_P3E.1_K3.1_C3.1_H3.1_A3.1_[T5C]_[A6C]_F3.1_[T7A]_[A8C]_T3.1]	192
UCUCUUUGUAAGCGUCUCUU (ssRNA) [Ic_S1_P3E.1_K3.1_C3.1_H3.1_A3.1_[T5A]_[A6G]_F3.1_[T7C]_[A8G]_T3.1]	1910
UCUCUUUGUACCCAUCUCUU (ssRNA) [Ic_S1_P3E.1_K3.1_C3.1_H3.1_A3.1_[T5C]_[A6C]_F3.1_[T7C]_T3.1]	429
UCUCUUUGUACCCUUCUCUU (ssRNA) [Ic_S1_P3E.1_K3.1_C3.1_H3.1_A3.1_[T5C]_[A6C]_F3.1_[T7C]_[A8T]_T3.1]	59.5
UCUCUUUGUACGCUUCUCUU (ssRNA) [Ic_S1_P3E.1_K3.1_C3.1_H3.1_A3.1_[T5C]_[A6G]_F3.1_[T7C]_[A8T]_T3.1]	62.7

— article PMC9352680, “A comprehensive thermodynamic model for RNA binding by the Saccharomyces cerevisiae Pumilio protein PUF4”
